Laboratory results from patent publication US20250340643A1 (AstraZeneca / MedImmune, published 2025).
Where two headings read alike, the source gives them in different places.

Tests used:
[1] = biological target: T1, CTLA4 on the cells of the reporter gene bioassay (human, UniProt P16410 36-223); assay: cell-based or functional assay
T1 sequence (looked up): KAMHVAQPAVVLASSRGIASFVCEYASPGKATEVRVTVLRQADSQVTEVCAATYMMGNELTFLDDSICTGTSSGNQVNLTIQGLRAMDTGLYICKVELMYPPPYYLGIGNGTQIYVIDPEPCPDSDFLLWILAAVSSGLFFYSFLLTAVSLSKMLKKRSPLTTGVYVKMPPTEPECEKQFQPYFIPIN

[2] = biological target: T1, CTLA4 on the cells of the reporter gene …; assay: cell-based or functional assay; remark: listed apart in the source
[3] = biological target: T1, CTLA4 on the cells of the reporter gene …; assay: cell-based or functional assay; remark: listed apart in the source
[4] = biological target: T1, CTLA4 on the cells of the reporter gene …; assay: cell-based or functional assay; remark: listed apart in the source
[5] = biological target: T1, CTLA4 on the cells of the reporter gene …; assay: cell-based or functional assay; remark: listed apart in the source
[6] = biological target: T2, recombinant FcRn (UniProt P55899 24-297; P61769 21-119, limits assumed); assay: SPR, recombinant FcRn immobilized on the sensor; relative to Reference Standard
T2 construct: also called Neonatal Fc Receptor
Description: (§1) A surface plasmon resonance binding assay was used to measure FcRn binding. This method is based on the ability of the test sample to bind to recombinant FcRn that has been immobilized on an SPR sensor surface. A reference flow cell was created using the same standard amine coupling procedure without the addition of FcRn.

[7] = biological target: T1, CTLA4 on the cells of the reporter gene …; assay: cell-based or functional assay; remark: listed apart in the source
[8] = biological target: T2, recombinant FcRn; assay: SPR, recombinant FcRn immobilized on the sensor; relative to Reference Standard; remark: listed apart in the source
Description: as §1

T2 sequence (P55899 24-297 limits assumed, form in doubt, chain 1 of 2): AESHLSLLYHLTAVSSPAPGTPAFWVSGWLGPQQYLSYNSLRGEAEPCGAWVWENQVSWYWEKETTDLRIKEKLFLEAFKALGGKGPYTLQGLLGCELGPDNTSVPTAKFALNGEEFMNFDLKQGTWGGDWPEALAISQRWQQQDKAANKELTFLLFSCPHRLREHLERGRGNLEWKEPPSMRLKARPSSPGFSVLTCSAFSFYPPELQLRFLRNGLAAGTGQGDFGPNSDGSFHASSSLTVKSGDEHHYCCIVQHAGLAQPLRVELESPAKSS
T2 sequence (P61769 21-119 limits assumed, form in doubt, chain 2 of 2): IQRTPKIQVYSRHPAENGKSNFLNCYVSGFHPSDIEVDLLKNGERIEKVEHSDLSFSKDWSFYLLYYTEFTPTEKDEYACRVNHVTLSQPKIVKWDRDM

B1: Tremelimumab, stressed starting material (low pH 2.5-3.0, 45° C., shaking) (antibody, human IgG2, kappa, V domains shown)
VH: QVQLVESGGGVVQPGRSLRLSCAASGFTFSSYGMHWVRQAPGKGLEWVAVIWYDGSNKYYADSVKGRFTISRDNSKNTLYLQMNSLRAEDTAVYYCARDPRGATLYYYYYGMDVWGQGTTVTVSS
VL: DIQMTQSPSSLSASVGDRVTITCRASQSINSYLDWYQQKPGKAPKLLIYAASSLQSGVPSRFSGSGSGTDFTLTISSLQPEDFATYYCQQYYSTPFTFGPGTKVEIKR
[1]
  Relative Potency (%): 91%

B2: Tremelimumab incubated in PBS at 37° C., week 1 (antibody, human IgG2, kappa, V domains shown)
VH: B1 VH
VL: B1 VL
modifications: Asn-30 deamidated in 8.8% (peptide mapping)
[2]
  Relative Potency (%): 96%

B3: Heat-stressed Tremelimumab (40° C.), month 3 (oxidation study) (antibody, human IgG2, kappa, V domains shown)
VH: B1 VH
VL: B1 VL
modifications: oxidation by peptide mapping: Trp-52 4.5%, Met-256 2.5%, Met-362 3.1%, Met-401 4.3%, Met-432 2.7%
[3]
  Relative Potency (%): 98%

B4: Tremelimumab incubated in human serum at 37° C., week 2 (antibody, human IgG2, kappa, V domains shown)
VH: B1 VH
VL: B1 VL
modifications: Asn-30 deamidated in 22.9% (peptide mapping)
[2]
  Relative Potency (%): 91%

B5: Tremelimumab incubated in human serum at 37° C., week 4 (antibody, human IgG2, kappa, V domains shown)
VH: B1 VH
VL: B1 VL
modifications: Asn-30 deamidated in 34.8% (peptide mapping)
[2]
  Relative Potency (%): 76%

B6: Tremelimumab incubated in PBS at 37° C., week 2 (antibody, human IgG2, kappa, V domains shown)
VH: B1 VH
VL: B1 VL
modifications: Asn-30 deamidated in 18.5% (peptide mapping)
[2]
  Relative Potency (%): 83%

B7: Tremelimumab incubated in human serum at 37° C., week 5 (antibody, human IgG2, kappa, V domains shown)
VH: B1 VH
VL: B1 VL
modifications: Asn-30 deamidated in 37.7% (peptide mapping)
[2]
  Relative Potency (%): 80%

B8: Tremelimumab incubated in human serum at 37° C., week 3 (antibody, human IgG2, kappa, V domains shown)
VH: B1 VH
VL: B1 VL
modifications: Asn-30 deamidated in 33.9% (peptide mapping)
[2]
  Relative Potency (%): 82%

B9: Tremelimumab incubated in PBS at 37° C., week 4 (antibody, human IgG2, kappa, V domains shown)
VH: B1 VH
VL: B1 VL
modifications: Asn-30 deamidated in 37.7% (peptide mapping)
[2]
  Relative Potency (%): 76%

B10: Tremelimumab incubated in PBS at 37° C., week 5 (antibody, human IgG2, kappa, V domains shown)
VH: B1 VH
VL: B1 VL
modifications: Asn-30 deamidated in 44.7% (peptide mapping)
[2]
  Relative Potency (%): 76%

B11: Heat-stressed Tremelimumab (40° C.), month 1 (oxidation study) (antibody, human IgG2, kappa, V domains shown)
VH: B1 VH
VL: B1 VL
modifications: oxidation by peptide mapping: Trp-52 1.6%, Met-256 1.4%, Met-362 2.1%, Met-401 2.4%, Met-432 1.5%
[3]
  Relative Potency (%): 112%

B12: Tremelimumab stressed at 40° C., 2 Months (fragment study) (antibody, human IgG2, kappa, V domains shown)
VH: B1 VH
VL: B1 VL
[4]
  Relative Potency (%) (reporter gene assay): 97%

B13: Tremelimumab incubated in human serum at 37° C., week 0 (antibody, human IgG2, kappa, V domains shown)
VH: B1 VH
VL: B1 VL
modifications: Asn-30 deamidated in 3.4% (peptide mapping)
[2]
  Relative Potency (%): 106%

B14: Tremelimumab stressed at 40° C., 0 Months (fragment study) (antibody, human IgG2, kappa, V domains shown)
VH: B1 VH
VL: B1 VL
[4]
  Relative Potency (%) (reporter gene assay): 95%

B15: Tremelimumab stressed at 40° C., 3 Months (fragment study) (antibody, human IgG2, kappa, V domains shown)
VH: B1 VH
VL: B1 VL
[4]
  Relative Potency (%) (reporter gene assay): 97%

B16: Tremelimumab, Prep SEC aggregate fraction (antibody, human IgG2, kappa, V domains shown)
VH: B1 VH
VL: B1 VL
[1]
  Relative Potency (%): 73%

B17: Heat-stressed Tremelimumab (40° C.), month 2 (oxidation study) (antibody, human IgG2, kappa, V domains shown)
VH: B1 VH
VL: B1 VL
modifications: oxidation by peptide mapping: Trp-52 2.5%, Met-256 2.0%, Met-362 2.6%, Met-401 3.8%, Met-432 2.2%
[3]
  Relative Potency (%): 101%

B18: Tremelimumab incubated in PBS at 37° C., week 3 (antibody, human IgG2, kappa, V domains shown)
VH: B1 VH
VL: B1 VL
modifications: Asn-30 deamidated in 27.0% (peptide mapping)
[2]
  Relative Potency (%): 93%

B19: Tremelimumab incubated in human serum at 37° C., week 1 (antibody, human IgG2, kappa, V domains shown)
VH: B1 VH
VL: B1 VL
modifications: Asn-30 deamidated in 11.1% (peptide mapping)
[2]
  Relative Potency (%): 98%

B20: Tremelimumab incubated in PBS at 37° C., week 0 (antibody, human IgG2, kappa, V domains shown)
VH: B1 VH
VL: B1 VL
modifications: Asn-30 deamidated in 2.2% (peptide mapping)
[2]
  Relative Potency (%): 92%

B21: Tremelimumab, Prep SEC monomer fraction (antibody, human IgG2, kappa, V domains shown)
VH: B1 VH
VL: B1 VL
[1]
  Relative Potency (%): 98%

B22: Heat-stressed Tremelimumab (40° C.), month 0 (oxidation study) (antibody, human IgG2, kappa, V domains shown)
VH: B1 VH
VL: B1 VL
modifications: oxidation by peptide mapping: Trp-52 1.8%, Met-256 1.3%, Met-362 1.6%, Met-401 1.6%, Met-432 1.2%
[3]
  Relative Potency (%): 100%

B23: Tremelimumab, chemical oxidation study (100 ppm H2O2), Control t = 0 (antibody, human IgG2, kappa)
heavy: QVQLVESGGGVVQPGRSLRLSCAASGFTFSSYGMHWVRQAPGKGLEWVAVIWYDGSNKYYADSVKGRFTISRDNSKNTLYLQMNSLRAEDTAVYYCARDPRGATLYYYYYGMDVWGQGTTVTVSSASTKGPSVFPLAPCSRSTSESTAALGCLVKDYFPEPVTVSWNSGALTSGVHTFPAVLQSSGLYSLSSVVTVPSSNFGTQTYTCNVDHKPSNTKVDKTVERKCCVECPPCPAPPVAGPSVFLFPPKPKDTLMISRTPEVTCVVVDVSHEDPEVQFNWYVDGVEVHNAKTKPREEQFNSTFRVVSVLTVVHQDWLNGKEYKCKVSNKGLPAPIEKTISKTKGQPREPQVYTLPPSREEMTKNQVSLTCLVKGFYPSDIAVEWESNGQPENNYKTTPPMLDSDGSFFLYSKLTVDKSRWQQGNVFSCSVMHEALHNHYTQKSLSLSPGK
light: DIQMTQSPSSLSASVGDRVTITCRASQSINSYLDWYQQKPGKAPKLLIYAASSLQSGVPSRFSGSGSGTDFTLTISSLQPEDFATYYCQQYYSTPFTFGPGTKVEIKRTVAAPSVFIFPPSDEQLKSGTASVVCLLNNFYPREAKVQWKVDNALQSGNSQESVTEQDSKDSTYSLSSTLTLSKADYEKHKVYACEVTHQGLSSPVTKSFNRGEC
modifications: oxidation by peptide mapping: Met-256 1.2%, Met-362 0.9%, Met-401 1.4%, Met-432 0.2%
[5]
  Relative Potency (%): 100%
[6]
  Relative FcRn Binding (%): 89%

B24: Tremelimumab, photo-stress study according to ICH guideline, Dark control (antibody, human IgG2, kappa)
heavy: B23 heavy
light: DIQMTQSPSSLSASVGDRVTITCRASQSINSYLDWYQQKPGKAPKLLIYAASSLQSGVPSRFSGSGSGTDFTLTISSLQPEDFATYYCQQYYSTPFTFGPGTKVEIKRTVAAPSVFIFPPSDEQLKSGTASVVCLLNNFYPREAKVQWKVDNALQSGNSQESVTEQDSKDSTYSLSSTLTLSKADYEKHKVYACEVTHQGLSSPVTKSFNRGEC
modifications: oxidation by peptide mapping: Trp-52 3.3%, Met-256 2.8%, Met-362 1.3%, Met-401 1.3%, Met-432 0.6%
[7]
  Relative Potency (%): 107%
[8]
  Relative FcRn Binding (%): 91%

B25: Tremelimumab incubated with 100 ppm H2O2 for 2 days (antibody, human IgG2, kappa)
heavy: B23 heavy
light: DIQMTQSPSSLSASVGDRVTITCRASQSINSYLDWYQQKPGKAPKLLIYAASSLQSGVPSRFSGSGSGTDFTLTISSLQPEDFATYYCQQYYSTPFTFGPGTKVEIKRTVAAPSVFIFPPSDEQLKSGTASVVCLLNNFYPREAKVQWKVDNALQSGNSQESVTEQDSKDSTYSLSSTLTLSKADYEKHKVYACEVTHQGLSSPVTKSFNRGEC
modifications: oxidation by peptide mapping: Met-256 55.8%, Met-362 17.8%, Met-401 44.6%, Met-432 20.7%
[5]
  Relative Potency (%): 88%
[6]
  Relative FcRn Binding (%): 37%

B26: Tremelimumab, cool white light about 2000 lux for 14 days, DP (2R vial, horizontal) (antibody, human IgG2, kappa)
heavy: B23 heavy
light: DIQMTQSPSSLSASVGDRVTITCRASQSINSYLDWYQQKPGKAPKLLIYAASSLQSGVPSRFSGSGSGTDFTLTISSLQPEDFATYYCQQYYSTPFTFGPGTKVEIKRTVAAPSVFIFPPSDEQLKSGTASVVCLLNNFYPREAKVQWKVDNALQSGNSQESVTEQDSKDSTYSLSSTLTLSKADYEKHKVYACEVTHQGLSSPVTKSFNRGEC
modifications: oxidation by peptide mapping: Trp-52 6.4%, Met-256 7.8%, Met-362 2.5%, Met-401 2.7%, Met-432 5.4%
notes: also called DP (2R vial, horizontal) 14
[7]
  Relative Potency (%): 97%
[8]
  Relative FcRn Binding (%): 92%

B27: Tremelimumab, photo-stressed, DP 3x ICH (antibody, human IgG2, kappa)
heavy: B23 heavy
light: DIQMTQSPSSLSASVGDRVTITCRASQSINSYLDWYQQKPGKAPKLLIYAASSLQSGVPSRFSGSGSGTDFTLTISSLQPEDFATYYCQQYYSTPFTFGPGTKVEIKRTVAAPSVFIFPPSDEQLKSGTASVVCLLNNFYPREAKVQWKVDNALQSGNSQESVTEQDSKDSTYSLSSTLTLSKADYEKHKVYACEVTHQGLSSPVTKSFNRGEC
modifications: oxidation by peptide mapping: Trp-52 36.7%, Met-256 41.9%, Met-362 12.8%, Met-401 15.8%, Met-432 34.6%
[7]
  Relative Potency (%): 59%
[8]
  Relative FcRn Binding (%): 41%

B28: Tremelimumab incubated with 100 ppm H2O2 for 4 days (antibody, human IgG2, kappa)
heavy: B23 heavy
light: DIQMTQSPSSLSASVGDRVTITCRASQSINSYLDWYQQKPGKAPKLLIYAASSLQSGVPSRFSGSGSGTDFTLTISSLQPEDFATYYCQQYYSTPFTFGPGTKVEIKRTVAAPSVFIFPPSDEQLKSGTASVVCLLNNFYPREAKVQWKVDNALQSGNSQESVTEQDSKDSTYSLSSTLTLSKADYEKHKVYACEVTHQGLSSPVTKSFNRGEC
modifications: oxidation by peptide mapping: Met-256 79.8%, Met-362 36.3%, Met-401 63.7%, Met-432 53.0%
[5]
  Relative Potency (%): 98%
[6]
  Relative FcRn Binding (%): 24%

B29: Tremelimumab incubated with 100 ppm H2O2 for 3 days (antibody, human IgG2, kappa)
heavy: B23 heavy
light: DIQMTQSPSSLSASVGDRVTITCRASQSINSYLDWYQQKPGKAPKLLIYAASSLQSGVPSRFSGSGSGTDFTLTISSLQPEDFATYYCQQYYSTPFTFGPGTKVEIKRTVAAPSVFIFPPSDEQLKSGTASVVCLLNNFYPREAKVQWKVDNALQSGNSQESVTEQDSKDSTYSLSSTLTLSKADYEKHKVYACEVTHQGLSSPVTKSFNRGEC
modifications: oxidation by peptide mapping: Met-256 68.5%, Met-362 26.5%, Met-401 55.2%, Met-432 42.1%
[5]
  Relative Potency (%): 83%
[6]
  Relative FcRn Binding (%): 28%

B30: Tremelimumab incubated with 100 ppm H2O2 for 8 hours (antibody, human IgG2, kappa)
heavy: B23 heavy
light: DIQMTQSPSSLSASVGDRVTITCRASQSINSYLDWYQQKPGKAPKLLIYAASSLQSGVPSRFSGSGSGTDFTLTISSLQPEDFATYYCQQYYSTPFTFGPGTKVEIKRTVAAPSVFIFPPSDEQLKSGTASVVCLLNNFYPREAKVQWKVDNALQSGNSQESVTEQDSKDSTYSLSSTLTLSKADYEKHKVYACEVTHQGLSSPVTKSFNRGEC
modifications: oxidation by peptide mapping: Met-256 13.4%, Met-362 3.9%, Met-401 13.3%, Met-432 2.4%
[5]
  Relative Potency (%): 88%
[6]
  Relative FcRn Binding (%): 93%

B31: Tremelimumab, cool white light about 2000 lux for 14 days, DP (2R vial vertical) (antibody, human IgG2, kappa)
heavy: B23 heavy
light: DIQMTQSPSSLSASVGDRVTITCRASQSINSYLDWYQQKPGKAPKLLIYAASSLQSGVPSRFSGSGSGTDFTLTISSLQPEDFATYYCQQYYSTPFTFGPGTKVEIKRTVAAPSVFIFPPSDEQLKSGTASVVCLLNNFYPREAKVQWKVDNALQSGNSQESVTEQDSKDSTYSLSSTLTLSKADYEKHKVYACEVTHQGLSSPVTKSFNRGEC
modifications: oxidation by peptide mapping: Trp-52 5.4%, Met-256 7.1%, Met-362 2.2%, Met-401 2.5%, Met-432 4.7%
[7]
  Relative Potency (%): 90%
[8]
  Relative FcRn Binding (%): 94%

B32: Tremelimumab incubated with 100 ppm H2O2 for 25 hours (antibody, human IgG2, kappa)
heavy: B23 heavy
light: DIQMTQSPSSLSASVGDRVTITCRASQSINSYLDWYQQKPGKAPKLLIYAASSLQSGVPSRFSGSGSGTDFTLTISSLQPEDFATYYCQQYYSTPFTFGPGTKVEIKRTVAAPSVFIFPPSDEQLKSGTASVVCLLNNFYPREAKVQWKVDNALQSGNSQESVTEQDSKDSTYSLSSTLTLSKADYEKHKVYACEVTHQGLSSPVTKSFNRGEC
modifications: oxidation by peptide mapping: Met-256 35.5%, Met-362 9.7%, Met-401 28.7%, Met-432 7.8%
[5]
  Relative Potency (%): 83%
[6]
  Relative FcRn Binding (%): 91%

B33: Tremelimumab, photo-stress study at 2000 lux, t = 0 control (antibody, human IgG2, kappa)
heavy: B23 heavy
light: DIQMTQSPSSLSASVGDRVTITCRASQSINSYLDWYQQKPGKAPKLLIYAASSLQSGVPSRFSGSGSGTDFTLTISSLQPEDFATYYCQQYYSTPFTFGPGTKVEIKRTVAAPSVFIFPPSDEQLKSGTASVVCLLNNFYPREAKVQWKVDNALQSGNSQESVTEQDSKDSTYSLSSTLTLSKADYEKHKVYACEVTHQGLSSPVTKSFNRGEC
modifications: oxidation by peptide mapping: Trp-52 0.7%, Met-256 3.3%, Met-362 1.4%, Met-401 1.6%, Met-432 1.0%
[7]
  Relative Potency (%): 102%
[8]
  Relative FcRn Binding (%): 98%

B34: Tremelimumab, photo-stressed, DP 1x ICH (antibody, human IgG2, kappa)
heavy: B23 heavy
light: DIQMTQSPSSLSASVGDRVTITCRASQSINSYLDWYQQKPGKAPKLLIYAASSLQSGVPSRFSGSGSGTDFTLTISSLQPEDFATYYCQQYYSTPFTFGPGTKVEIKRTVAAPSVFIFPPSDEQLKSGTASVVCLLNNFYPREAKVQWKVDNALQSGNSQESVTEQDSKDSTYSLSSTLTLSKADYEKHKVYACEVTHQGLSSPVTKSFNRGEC
modifications: oxidation by peptide mapping: Trp-52 10.9%, Met-256 12.1%, Met-362 3.8%, Met-401 4.1%, Met-432 11.9%
[7]
  Relative Potency (%): 87%
[8]
  Relative FcRn Binding (%): 78%
